The labels stand for the following.
B1: SEQ ID NO: 9 (ssRNA)
RNA: GGGAGAACUUCGACCAGAAGUUGGCACAUCCUGCUGCGUAGUUUCCGUCUCCGUGGCUGUUAUGUGCGCAUAC
modifications: 2'-F C and U; 2'-OH G; 2'-H (deoxy) A
B2: SEQ ID NO: 10 (ssRNA)
RNA: GGGAGAACUUCGACCAGAAGUUGGCACAUCCUGCUGCGUAGUUUCCGUCUCCGUGGCUGUUAUGUGCG
modifications: 2'-F C and U; 2'-OH G; 2'-H (deoxy) A

20 molecules from patent publication US20140235701, “NGF APTAMER AND APPLICATION THEREOF” (RIBOMIC INC., published 2014) can be followed below.

T1 sequence (P01138 122-241, one chain of several): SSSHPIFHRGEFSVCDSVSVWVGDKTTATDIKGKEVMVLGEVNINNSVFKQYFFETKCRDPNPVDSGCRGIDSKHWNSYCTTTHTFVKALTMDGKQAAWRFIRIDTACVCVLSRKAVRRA

One series concerns the target T1, NGF (nerve growth factor) (Homo sapiens, UniProt P01138 P01138:122-241). Briefly: cell_activity; neurite. To be noted: tags: R&D Systems; chain copies: 2. As for the experimental part:
The cells (2500 cells per well) were cultured for one day in an RPMI-1640 medium containing 2.5% horse serum and 1.25% fetal bovine serum in a 96 well flat-bottom plate coated with collagen type IV. […] Two days later, the cytoplasm and nuclei were stained using Cellomics Neurite Outgrowth Kit (manufactured by Thermo Scientific), and neurite length per cell was measured by Cellomics ArrayScan VTI (manufactured by Thermo Scientific). With the neurite length per cell obtained by the addition of NGF alone as inhibitory activity 0%, and that of the cell obtained by NGF free culture for 2 days as inhibitory activity 100%, the inhibitory activity of the aptamer was calculated from the neurite length per cell obtained by culturing with the addition of NGF and the aptamer in mixture.
As to GGGUCCUGCUGCAUAGUUUCCGUCUUUGUGGCUGUUACCC (ssRNA, 2'-OMe G (G8,G34 2'-OH), dA, 2'-F C/U; 5',3' idT) [SEQ ID NO: 66(1)], the half-maximal inhibitory concentration (IC50) was at most 1 nM. Same read-out and setting: the same measure for GGGUCCUGCUGCGUAGUUUCCGUCUUCGCGGCUGUUACCC (ssRNA, 2'-OMe G (G8,G34 2'-OH), dA, 2'-F C/U; 5',3' idT) [SEQ ID NO: 38(1)]: at most 1 nM; for GGGUCCUGCUGCGUAGUUUCCGUCUGCGUGGCUGUUACCC (ssRNA, 2'-OMe G (G8,G26,G34 2'-OH), dA, 2'-F C/U; 5',3' idT) [SEQ ID NO: 151]: at most 1 nM; for GGGUCCUGCUGCGUAGUUUCCGUCUGCGUGGCUGUUACCC (ssRNA, 2'-OMe G (G8,G34 2'-OH), dA, 2'-F C/U; 5',3' idT) [SEQ ID NO: 152]: at most 1 nM. Still for that read-out and setting: the same measure for GGGUCCUGCUGCAUAGUUUCCGUCUGUGUGGCUGUUACCC (ssRNA, 2'-OMe G (G8,G34 2'-OH), dA, 2'-F C/U; 5',3' idT) [SEQ ID NO: 71(1)]: at most 1 nM; for GGGUCCUGCUGCGUAGUUUCCGUCUGCGUGGCUGUUACCC (ssRNA, 2'-OMe G (G8,G34 2'-OH), dA, 2'-F C/U; 5' PEG40GS2, 3' idT) [SEQ ID NO: 153]: at most 1 nM. Still for that read-out and setting: the figure for GGGUCCUGCUGCGUAGUUUCCGUCUGCGUGGCUGUUACCC (ssRNA, 2'-OMe G (G8,G34 2'-OH), dA, 2'-F C/U; 5' idT, 3' PEG40GS2) [SEQ ID NO: 154] is at most 1 nM. In the case of GGGUCCUGCUGCGCAGUUUCCGUCUACGUGGCUGUUACCC (ssRNA, 2'-OMe G (G8,G34 2'-OH), dA, 2'-F C/U; 5',3' idT) [SEQ ID NO: 155], the concentration for half-maximal inhibition (IC50) is at most 1 nM. Take GGGUCCUGCUGCAGAGUUUCCGUCUCGGUGGCUGUUACCC (ssRNA, 2'-OMe G (G8,G34 2'-OH), dA, 2'-F C/U; 5',3' idT) [SEQ ID NO: 74(1)]: the concentration for half-maximal inhibition (IC50) was at most 1 nM.

For the molecule GGGUCCUGAUGCGUAGUUUCCGUCUGCGUGUCUGUUACCC (ssRNA, 2'-OMe G (G8,G34 2'-OH), dA, 2'-F C/U; 5',3' idT) [SEQ ID NO: 68(1)], the concentration for half-maximal inhibition (IC50) is at most 1 nM.

In a further series the target is T1, NGF (nerve growth factor). Briefly: SPR; more than 40N; high inhibition of receptor binding. To be noted: tags: R&D Systems; chain copies: 2.
As to B1, the binding result is reported as “binds”. On the same count and under the same terms, the entry for GGGCACAUCCUGCUGCGUAGUUUCCGUCUCCGUGGCUGUUAUGUGC (ssRNA, 2'-F C and U; 2'-OH G; 2'-H (deoxy) A) [SEQ ID NO: 11] is “binds”. Still for that read-out and setting: the entry for B2 is “binds”.

The same series, now with this note: tags: R&D Systems; chain copies: 2; stem 1 - internal loop 1 - stem 2 - loop 2 (consensus secondary structure 1).
For the molecule GGGUCCUGCUGCGUAGUUUCCGUCUCCGUGGCUGUUACCC (ssRNA, 2'-F C and U; 2'-OH G; 2'-H (deoxy) A) [SEQ ID NO: 12], the binding result is “binds”.

The target in the next series is T1, NGF (nerve growth factor). Briefly: cell_activity; neurite; TF-1 >0.1. Particulars: tags: R&D Systems; chain copies: 2.
Take GGGUCCUGGAUAAGAGUUUCCGUCUCGUAUCCUGUUACCC (ssRNA, as 82(25) except dU18) [SEQ ID NO: 82(38)]: the midpoint of inhibition, the IC50, lay at 0.295 nM. Same read-out and setting: the figure for GGGUCCUGGAUAAGAGTUUCCGUCUCGUAUCCTGUUACCC (ssRNA, as 82(48) except dU7,dT17,dT33,dU36) [SEQ ID NO: 168] is 0.261 nM. Still for that read-out and setting: the figure for GGGUCCUGGAUAAGAGUUUCCGUCUCGUAUCCUGUTACCC (ssRNA, as 82(1) except dT36) [SEQ ID NO: 159] is 0.264 nM; for GGGUCCUGGAUAAGAGUUUCCGUCUCGUAUCCUGUUACCC (ssRNA, as 82(1) except dC24) [SEQ ID NO: 82(31)] it is 0.276 nM; for GGGUCCUGGAUAAGAGUUUCCGUCUCGUAUCCUGUUACCC (ssRNA, as 82(25) except dU19) [SEQ ID NO: 82(39)] it is 0.256 nM. Still for that read-out and setting: the figure for GGGUCCUGGAUAAGAGUUUCCGUCUCGUAUCCUGUUACCC (ssRNA, as 82(1) except 2'-OMe U33) [SEQ ID NO: 82(14)] is 0.294 nM.
